B1: APBB1IP (parent)
chain: SQVSMWDQRWQDHQPLLPITDVP

Variants of: B1
Assay: protein stability index of a GFP-peptide fusion (GPS, HEK-293T) (PSI 1-6); higher = more stable
Details: c terminus: native
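Also: lentivirally expressed fusions sorted by FACS into six bins by GFP to DsRed ratio, PSI derived from sequencing read proportions per bin multiplied by bin number.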

Row | Variant | protein stability index
1 | SQVSMWDQRWSDHQPLLPITDVP [Q11S] | 2.37
2 | SQVSMWDQRWHDHQPLLPITDVP [Q11H] | 1.67
3 | SQVSMWDQRWADHQPLLPITDVP [Q11A] | 1.84
4 | SQVSMWDQRWMDHQPLLPITDVP [Q11M] | 2.06
5 | SQVSMWDQRWPDHQPLLPITDVP [Q11P] | 2.1
6 | SQVSMWDQRWTDHQPLLPITDVP [Q11T] | 2.29
7 | SQVSMWDQRWCDHQPLLPITDVP [Q11C] | 1.92
8 | SQVSMWDQRWIDHQPLLPITDVP [Q11I] | 3.03
9 | SQVSMWDQRWVDHQPLLPITDVP [Q11V] | 2.25
10 | SQVSMWDQRWFDHQPLLPITDVP [Q11F] | 1.68
11 | SQVSMWDQRWKDHQPLLPITDVP [Q11K] | 2.87
12 | SQVSMWDQRWLDHQPLLPITDVP [Q11L] | 1.59
13 | SQVSMWDQRWRDHQPLLPITDVP [Q11R] | 3.7
14 | SQVSMWDQRWWDHQPLLPITDVP [Q11W] | 1.77
15 | SQVSMWDQRWEDHQPLLPITDVP [Q11E] | 3.38
16 | SQVSMWDQRWDDHQPLLPITDVP [Q11D] | 2.38
17 | SQVSMWDQRWNDHQPLLPITDVP [Q11N] | 2.74
18 | SQVSMWDQRWGDHQPLLPITDVP [Q11G] | 1.77
19 | SQVSMWDQDWQDHQPLLPITDVP [R9D] | 3.69
20 | SQVSMWDQMWQDHQPLLPITDVP [R9M] | 3.13
21 | SQVSMWDQSWQDHQPLLPITDVP [R9S] | 2.4
22 | SQVSMWDQEWQDHQPLLPITDVP [R9E] | 3.54
23 | SQVSMWDQFWQDHQPLLPITDVP [R9F] | 3.11
24 | SQVSMWDQWWQDHQPLLPITDVP [R9W] | 1.93
25 | SQVSMWDQPWQDHQPLLPITDVP [R9P] | 3.64

Row | Variant | protein stability index
26 | SQVSMWDQHWQDHQPLLPITDVP [R9H] | 3.7
27 | SQVSMWDQCWQDHQPLLPITDVP [R9C] | 2.26
28 | SQVSMWDQLWQDHQPLLPITDVP [R9L] | 2.61
29 | SQVSMWDQAWQDHQPLLPITDVP [R9A] | 1.84
30 | SQVSMWDQQWQDHQPLLPITDVP [R9Q] | 3.39
31 | SQVSMWDQIWQDHQPLLPITDVP [R9I] | 2.34
32 | SQVSMWDQGWQDHQPLLPITDVP [R9G] | 2.89
33 | SQVSMWDQNWQDHQPLLPITDVP [R9N] | 2.73
34 | SQVSMWDQVWQDHQPLLPITDVP [R9V] | 2.38
35 | SQVSMWDQYWQDHQPLLPITDVP [R9Y] | 2.42
36 | SQVSMWDQRWQDHAPLLPITDVP [Q14A] | 2.48
37 | SQVSMWDQRWQDHEPLLPITDVP [Q14E] | 3.31
38 | SQVSMWDQRWQDHGPLLPITDVP [Q14G] | 2.54
39 | SQVSMWDQRWQDHCPLLPITDVP [Q14C] | 3.58
40 | SQVSMWDQRWQDHDPLLPITDVP [Q14D] | 2.74
41 | SQVSMWDQRWQDHFPLLPITDVP [Q14F] | 2.25
42 | SQVSMWDQRNQDHQPLLPITDVP [W10N] | 3.39
43 | SQVSMWDQRPQDHQPLLPITDVP [W10P] | 3.68
44 | SQVSMWDQRIQDHQPLLPITDVP [W10I] | 2.81
45 | SQVSMWDQRYQDHQPLLPITDVP [W10Y] | 2.55
46 | SQVSMWDQRFQDHQPLLPITDVP [W10F] | 2.31
47 | SQVSMWDQRVQDHQPLLPITDVP [W10V] | 2.17
48 | SQVSMWDQRSQDHQPLLPITDVP [W10S] | 3.37
49 | SQVSMWDQRQQDHQPLLPITDVP [W10Q] | 3.29
50 | SQVSMWDQRLQDHQPLLPITDVP [W10L] | 2.51

Row | Variant | protein stability index
51 | SQVSMWDQRHQDHQPLLPITDVP [W10H] | 3.14
52 | SQVSMWDQRMQDHQPLLPITDVP [W10M] | 2.4
53 | SQVSMWDQRRQDHQPLLPITDVP [W10R] | 3.03
54 | SQVSMWDQRKQDHQPLLPITDVP [W10K] | 3.75
55 | SQVSMWDQRCQDHQPLLPITDVP [W10C] | 3.12
56 | SQVSMWDQRDQDHQPLLPITDVP [W10D] | 3.44
57 | SQVSMWDQRWQDQQPLLPITDVP [H13Q] | 2.43
58 | SQVSMWDQRWQDCQPLLPITDVP [H13C] | 2.24
59 | SQVSMWDQRWQDNQPLLPITDVP [H13N] | 2.85
60 | SQVSMWDQRWQDMQPLLPITDVP [H13M] | 1.99
61 | SQVSMWDQRWQDVQPLLPITDVP [H13V] | 2.47
62 | SQVSMWDQRWQDEQPLLPITDVP [H13E] | 3.47
63 | SQVSMWDQRWQDTQPLLPITDVP [H13T] | 2.94
64 | SQVSMWDQRWQDYQPLLPITDVP [H13Y] | 2.15
65 | SQVSMWDQRWQDKQPLLPITDVP [H13K] | 2.76
66 | SQVSMWDQRWQDPQPLLPITDVP [H13P] | 2.23
67 | SQVSMWDQRWQDWQPLLPITDVP [H13W] | 1.5
68 | SQVSMWDQRWQDIQPLLPITDVP [H13I] | 2.3
69 | SQVSMWDQRWQDAQPLLPITDVP [H13A] | 3.06
70 | SQVSMWDQRWQDGQPLLPITDVP [H13G] | 3.03
71 | SQVSMWDQRWQDFQPLLPITDVP [H13F] | 1.88
72 | SQVSMWDQRWQDDQPLLPITDVP [H13D] | 3.17
73 | SQVSMWDQRWQDSQPLLPITDVP [H13S] | 2.94
74 | SQVSMWDQRWQDRQPLLPITDVP [H13R] | 2.58
75 | SQVSMWDQRWQDLQPLLPITDVP [H13L] | 1.95

Row | Variant | protein stability index
76 | SQVSMWDQRWQHHQPLLPITDVP [D12H] | 1.64
77 | SQVSMWDQRWQRHQPLLPITDVP [D12R] | 1.34
78 | SQVSMWDQRWQMHQPLLPITDVP [D12M] | 1.85
79 | SQVSMWDQRWQIHQPLLPITDVP [D12I] | 1.75
80 | SQVSMWDQRWQLHQPLLPITDVP [D12L] | 2.44
81 | SQVSMWDQRWQTHQPLLPITDVP [D12T] | 2.59
82 | SQVSMWDQRWQCHQPLLPITDVP [D12C] | 1.56
83 | SQVSMWDQRWQVHQPLLPITDVP [D12V] | 3.1
84 | SQVSMWDQRWQSHQPLLPITDVP [D12S] | 2.1
85 | SQVSMWDQRWQAHQPLLPITDVP [D12A] | 2.31
86 | SQVSMWDQRWQKHQPLLPITDVP [D12K] | 1.71
87 | SQVSMWDQRWQWHQPLLPITDVP [D12W] | 1.24
88 | SQVSMWDQRWQYHQPLLPITDVP [D12Y] | 3.2
89 | SQVSMWDQRWQEHQPLLPITDVP [D12E] | 2.15
90 | SQVSMWDQRWQFHQPLLPITDVP [D12F] | 1.8
91 | SQVSMWDQRWQNHQPLLPITDVP [D12N] | 2.17
92 | SQVSMWDQRWQQHQPLLPITDVP [D12Q] | 2.06
93 | SQVSMWDQRWQPHQPLLPITDVP [D12P] | 1.78
94 | SQVSMWDYRWQDHQPLLPITDVP [Q8Y] | 2.21
95 | SQVSMWDVRWQDHQPLLPITDVP [Q8V] | 2.33
96 | SQVSMWDWRWQDHQPLLPITDVP [Q8W] | 3.03
97 | SQVSMWDTRWQDHQPLLPITDVP [Q8T] | 2.09
